In article PMC6317530:

Substrate: O=C(O)c1cc(=O)[nH]c(=O)n1[C@@H]1O[C@H](COP(=O)(O)O)[C@@H](O)[C@H]1O
Experiment: purified protein
Conditions: pH 7.1 (10 mM MOPS), 25 °C, I = 0.105 (NaCl)

B1: ScOMPDC (yeast orotidine 5′-monophosphate decarboxylase) (Saccharomyces cerevisiae S288C; A160S/C155S/N267D/Q215A/S154A/S2H/Y217F) (protein)
chain: MHKATYKERAATHPSPVAAKLFNIMHEKQTNLCASLDVRTTKELLELVEALGPKICLLKTHVDILTDFSMEGTVKPLKALSAKYNFLLFEDRKFADIGNTVKLQYSAGVYRIAEWADITNAHGVVGPGIVSGLKQAAEEVTKEPRGLLMLAELASKGSLSTGEYTKGTVDIAKSDKDFVIGFIAQRDMGGRDEGYDWLIMTPGVGLDDKGDALGAQFRTVDDVVSTGSDIIIVGRGLFAKGRDAKVEGERYRKAGWEAYLRRCGQQD
**Q.** With B1 as the protein, how does the Km read?
**A.** 1500 ± 50 µM
